Key:
[1] = substrate: OC[C@@H](O)[C@@H](O)[C@H](O)[C@@H](O)CO; assay: NAD+ reduction, crude extract of overexpressing yeast; type: biochemical, Saccharomyces cerevisiae; settings: 1.66 mM NAD+, 60 mM HEPES-NaOH pH 7.4
Excerpt: (§1) NAD+ reduction, crude extract of overexpressing yeast on Sor1

[2] = substrate: OC[C@@H](O)[C@@H](O)[C@H](O)[C@H](O)CO; assay: as above; type: biochemical, Saccharomyces cerevisiae; settings: 1.66 mM NAD+, 60 mM HEPES-NaOH pH 7.4
Excerpt: as §1

[3] = substrate: OC[C@@H](O)[C@@H](O)[C@H](O)[C@@H](O)CO; assay: as above; type: biochemical, Saccharomyces cerevisiae; settings: 1.66 mM NAD+, 60 mM HEPES-NaOH pH 7.4; remark: listed apart in the source
Excerpt: (§2) NAD+ reduction, crude extract of overexpressing yeast on Sor2

[4] = substrate: OC[C@@H](O)[C@@H](O)[C@H](O)[C@H](O)CO; assay: as above; type: biochemical, Saccharomyces cerevisiae; settings: 1.66 mM NAD+, 60 mM HEPES-NaOH pH 7.4; remark: listed apart in the source
Excerpt: as §2

[5] = substrate: OC[C@@H](O)[C@@H](O)[C@H](O)[C@@H](O)CO; assay: cells, lysate or membranes; type: cell-based, Saccharomyces cerevisiae; settings: labelled compound, EBY.VW4000 co-expressing SOR1, 30 °C, facilitated transport
[6] = substrate: OC[C@@H](O)[C@@H](O)[C@H](O)[C@H](O)CO; assay: cells, lysate or membranes; type: cell-based, Saccharomyces cerevisiae; settings: labelled compound, EBY.VW4000 co-expressing YNR073C, 30 °C
[7] = substrate: OC[C@@H](O)[C@@H](O)[C@H](O)[C@H](O)CO; assay: NAD+ reduction, crude extract of overexpressing yeast; type: biochemical, Saccharomyces cerevisiae; settings: 1.66 mM NAD+, 60 mM HEPES-NaOH pH 7.4; remark: listed apart in the source
Excerpt: NAD+ reduction, crude extract of overexpressing yeast on YNR073C

[8] = substrate: OC[C@@H](O)[C@@H](O)[C@H](O)[C@H](O)CO; assay: as above; type: biochemical, Saccharomyces cerevisiae; settings: 1.66 mM NAD+, 60 mM HEPES-NaOH pH 7.4; remark: listed apart in the source
Excerpt: NAD+ reduction, crude extract of overexpressing yeast on Dsf1

B1: Sor1 (Saccharomyces cerevisiae S288C) (protein)
chain: MSQNSNPAVVLEKVGDIAIEQRPIPTIKDPHYVKLAIKATGICGSDIHYYRSGGIGKYILKAPMVLGHESSGQVVEVGDAVTRVKVGDRVAIEPGVPSRYSDETKEGRYNLCPHMAFAATPPIDGTLVKYYLSPEDFLVKLPEGVSYEEGACVEPLSVGVHSNKLAGVRFGTKVVVFGAGPVGLLTGAVARAFGATDVIFVDVFDNKLQRAKDFGATNTFNSSQFSTDKAQDLADGVQKLLGGNHADVVFECSGADVCIDAAVKTTKVGGTMVQVGMGKNYTNFPIAEVSGKEMKLIGCFRYSFGDYRDAVNLVATGKVNVKPLITHKFKFEDAAKAYDYNIAHGGEVVKTIIFGPE
notes: full-length ORF, p425H7 multicopy plasmid, overexpressed in yeast CEN.PK2-1C; crude extract
- Km [1]: 11.8 ± 1.4 mM
- Vmax [1]: 0.40 ± 0.01 umol substrate converted per minute per
- Km [2]: 89.0 ± 37.5 mM
- Vmax [2]: 0.10 ± 0.02 umol substrate converted per minute per

B2: Sor2 (Saccharomyces cerevisiae S288C) (protein)
chain: MSQNSNPAVVLEKVGDIAIEQRPIPTIKDPHYVKLAIKATGICGSDIHYYRSGGIGKYILKAPMVLGHESSGQVVEVGDAVTRVKVGDRVAIEPGVPSRYSDETKEGSYNLCPHMAFAATPPIDGTLVKYYLSPEDFLVKLPEGVSYEEGACVEPLSVGVHSNKLAGVRFGTKVVVFGAGPVGLLTGAVARAFGATDVIFVDVFDNKLQRAKDFGATNTFNSSQFSTDKAQDLADGVQKLLGGNHADVVFECSGADVCIDAAVKTTKVGGTMVQVGMGKNYTNFPIAEVSGKEMKLIGCFRYSFGDYRDAVNLVATGKVNVKPLITHKFKFEDAAKAYDYNIAHGGEVVKTIIFGPE
notes: as for B1
- Km [3]: 15.1 ± 2.8 mM
- Vmax [3]: 0.5 ± 0.02 umol substrate converted per minute per
- Km [4]: 98.4 ± 25.7 mM
- Vmax [4]: 0.05 ± 0.01 umol substrate converted per minute per

B3: Hxt13 (Saccharomyces cerevisiae S288C) (protein)
chain: MSSAQSSIDSDGDVRDADIHVAPPVEKEWSDGFDDNEVINGDNVEPPKRGLIGYLVIYLLCYPISFGGFLPGWDSGITAGFINMDNFKMNFGSYKHSTGEYYLSNVRMGLLVAMFSIGCAIGGLIFARLADTLGRRLAIVIVVLVYMVGAIIQISSNHKWYQYFVGKIIYGLGAGGCSVLCPMLLSEIAPTDLRGGLVSLYQLNMTFGIFLGYCSVYGTRKYDNTAQWRVPLGLCFLWALIIIIGMLLVPESPRYLIECERHEEARASIAKINKVSPEDPWVLKQADEINAGVLAQRELGEASWKELFSVKTKVLQRLITGILVQTFLQLTGENYFFFYGTTIFKSVGLTDGFETSIVLGTVNFFSTIIAVMVVDKIGRRKCLLFGAAGMMACMVIFASIGVKCLYPHGQDGPSSKGAGNAMIVFTCFYIFCFATTWAPVAYIVVAESFPSKVKSRAMSISTACNWLWQFLIGFFTPFITGSIHFYYGYVFVGCLVAMFLYVFFFLPETIGLSLEEIQLLYEEGIKPWKSASWVPPSRRGISSEESKTEKKDWKKFLKFSKNSD
notes: full-length ORF, p426H7 plasmid, expressed in hxt0 yeast EBY.VW4000 with YNR073C or SOR1
- Km [5]: 20.4 ± 2.4 mM
- Km ([6]; facilitated transport): 16.7 ± 2.9 mM

B4: YNR073C (Saccharomyces cerevisiae S288C) (protein)
chain: MTKSDETTATSLNAKTLKSFESTLPIPTYPREGVKQGIVHLGVGAFHRSHLAVFMHRLMQEHHLKDWSICGVGLMKADALMRDAMKAQDCLYTLVERGIKDTNAYIVGSITAYMYAPDDPRAVIEKMANPDTHIVSLTVTENGYYHSEATNSLMTDAPEIINDLNHPEKPDTLYGYLYEALLLRYKRGLTPFTIMSCDNMPQNGVTVKTMLVAFAKLKKDEKFAAWIEDKVTSPNSMVDRVTPRCTDKERKYVADTWGIKDQCPVVAEPFIQWVLEDNFSDGRPPWELVGVQVVKDVDSYELMKLRLLNGGHSAMGYLGYLAGYTYIHEVVNDPTINKYIRVLMREEVIPLLPKVPGVDFEEYTASVLERFSNPAIQDTVARICLMGSGKMPKYVLPSIYEQLRKPDGKYKLLAVCVAGWFRYLTGVDMNGKPFEIEDPMAPTLKAAAVKGGKDPHELLNIEVLFSPEIRDNKEFVAQLTHSLETVYDKGPIAAIKEILDQV
notes: as for B1
- Km [7]: 3.6 ± 0.5 mM
- Vmax [7]: 0.40 ± 0.02 umol substrate converted per minute per

B5: Dsf1 (Saccharomyces cerevisiae S288C) (protein)
chain: MTKSDETTATSLNAKTLKSFESTLPIPTYPREGVKQGIVHLGVGAFHRSHLAVFMHRLMQEHHLKDWSICGVGLMKADALMRDAMKAQDCLYTLVERGIKDTNAYIVGSITAYMYAPDDPRAVIEKMANPDTHIVSLTVTENGYYHSEATNSLMTDAPEIINDLNHPEKPDTLYGYLYEALLLRYKRGLTPFTIMSCDNMPQNGVTVKTMLVAFAKLKKDEKFAAWIEDKVTSPNSMVDRVTPRCTDKERKYVADTWGIKDQCPVVAEPFIQWVLEDNFSDGRPPWELVGVQVVKDVDSYELMKLRLLNGGHSAMGYLGYLAGYTYIHEVVNDPTINKYIRVLMREEVIPLLPKVPGVDFEEYTASVLERFSNPAIQDTVARICLMGSGKMPKYVLPSIYEQLRKPDGKYKLLAVCVAGWFRYLTGVDMNGKPFEIEDPMAPTLKAAAVKGGKDPHELLNIEVLFSPEIRDNKEFVAQLTHSLETVYDKGPIAAIKEILDQV
notes: as for B1
- Km [8]: 2.9 ± 0.3 mM
- Vmax [8]: 0.90 ± 0.02 umol substrate converted per minute per

B6: Hxt15 (Saccharomyces cerevisiae S288C) (protein)
chain: MASEQSSPEINADNLNSSAADVHVQPPGEKEWSDGFYDKEVINGNTPDAPKRGFLGYLIIYLLCYPVSFGGFLPGWDSGITAGFINMDNFKMNFGSYKHSTGEYYLSNVRMGLLVAMFSVGCSIGGVAFARLADTLGRRLAIVIVVLVYMVGAIIQISSNHKWYQYFVGKIIYGLGAGGCSVLCPMLLSEIAPTDLRGGLVSLYQLNMTFGIFLGYCSVYGTRKYSNTAQWRIPVGLCFLWALIIIVGMLLVPESPRYLIECERHEEACVSIAKINKVSPEDPWVLKQADEINAGVLAQRELGEASWKELFSVKTKVLQRLITGILVQTFLQLTGENYFFFYGTTIFKSVGLTDGFETSIVLGTVNFFSTIIAVMVVDKIGRRKCLLFGAASMMACMVIFASIGVKCLYPHGQDGPSSKGAGNAMIVFTCFYIFCFATTWAPVAYIVVAESFPSKVKSKAMSISTAFNWLWQFLIGFFTPFITGSIHFYYGYVFVGCLVAMFLYVFFFLPETIGLSLEEIQLLYEEGIKPWKSASWVPPSRRGASSRETEAKKKSWKEVLKFPKSFN
notes: full-length ORF, p426H7 plasmid, expressed in hxt0 yeast EBY.VW4000 or AFY10 with a polyol dehydrogenase
- Km [5]: 38.9 ± 8.6 mM
- Km ([6]; facilitated transport): 11.4 ± 2.7 mM

B7: Hxt17 (Saccharomyces cerevisiae S288C) (protein)
chain: MQSSTESDRDIQDGPDADIHVAPPVEKEWSDGFDDNEVINGDNVEPPKRGLIGYLVIYLLCYPISFGGFLPGWDSGITAGFINMDNFKMNFGSYKHSTGEYYLSNVRMGLLVAMFSIGCAIGGLIFARLADTLGRRLAIVIVVLVYMVGAIIQISSNHKWYQYFVGKIIYGLGAGGCSVLCPMLLSEIAPTDLRGGLVSLYQLNMTFGIFLGYCSVYGTRKYDNTAQWRVPLGLCFLWTLIIIIGMLLVPESPRYLIECERHEEARASIAKINKVSPEDPWVLKQADEINAGVLAQRELGEASWKELFSVKTKVLQRLITGILVQTFLQLTGENYFFFYGTTIFKSVGLTDGFETSIVLGTVNFFSTIIAVMVVDKIGRRKCLLFGAAGMMACMVIFASIGVKCLYPHGQDGPSSKGAGNAMIVFTCFYIFCFATTWAPVAYIVVAESFPSKVKSRAMSISTACNWLWQFLIGFFTPFITGSIHFYYGYVFVGCLVAMFLYVFFFLPETIGLSLEEIQLLYEEGIKPWKSASWVPPSRRGIPSEESKTEKKDWKKFLKFSKGSD
notes: as for B3
- Km [6]: 18.6 ± 4.3 mM

From PMC4800717, “Hxt13, Hxt15, Hxt16 and Hxt17 from Saccharomyces cerevisiae represent a novel type of polyol transporters” (Scientific Reports, 2016)
